Reference: the supplement of paper PMC10567573

B1: ETS2 (parent)
chain: TSGKRYVYRFVCDLQNLLGFTPEE

Variants of: B1
Assay: protein stability index of a GFP-peptide fusion (GPS, HEK-293T) (PSI 1-6); higher = more stable
Details: c terminus: a fixed tail appended
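Note: lentivirally expressed fusions sorted by FACS into six bins by GFP to DsRed ratio, PSI derived from sequencing read proportions per bin multiplied by bin number.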

Row | Variant | protein stability index
1 | TSGKRYVYRFVCDLQLLLGFTPEE [N16L] | 1.52
2 | TSGKRYVYRFVCDLQILLGFTPEE [N16I] | 2.03
3 | TSGKRYVYRFVCDLQDLLGFTPEE [N16D] | 2.17
4 | TSGKRYVYRFVCDLQYLLGFTPEE [N16Y] | 1.75
5 | TSGKRYVYRFVCDLQWLLGFTPEE [N16W] | 2.05
6 | TSGKRYVYRFVCDLQCLLGFTPEE [N16C] | 1.7
7 | TSGKRYVYRFVCDLQKLLGFTPEE [N16K] | 2.02
8 | TSGKRYVYRFVCDLQFLLGFTPEE [N16F] | 2.16
9 | TSGKRYVYRFVCDLQALLGFTPEE [N16A] | 2.13
10 | TSGKRYVYRFVCDLQSLLGFTPEE [N16S] | 2.46
11 | TSGKRYVYRFVCDLQPLLGFTPEE [N16P] | 2.56
12 | TSGKRYVYRFVCDLQGLLGFTPEE [N16G] | 2.38
13 | TSGKRYVYRFVCDLQVLLGFTPEE [N16V] | 3.2
14 | TSGKRYVYRFVCDLQTLLGFTPEE [N16T] | 1.97
15 | TSGKRYVYRFVCDLQMLLGFTPEE [N16M] | 1.53
16 | TSGKRYVYRFVCDLQQLLGFTPEE [N16Q] | 2.04
17 | TSGKRYVYRFVCDLQHLLGFTPEE [N16H] | 2.49
18 | TSGKRYVYRFVCDLQELLGFTPEE [N16E] | 1.74
19 | TSGKRYVYRFVCDLQNLEGFTPEE [L18E] | 2.04
20 | TSGKRYVYRFVCDLQNLWGFTPEE [L18W] | 2.1
21 | TSGKRYVYRFVCDLQNLVGFTPEE [L18V] | 2.91
22 | TSGKRYVYRFVCDLQNLTGFTPEE [L18T] | 1.91
23 | TSGKRYVYRFVCDLQNLNGFTPEE [L18N] | 2.29
24 | TSGKRYVYRFVCDLQNLHGFTPEE [L18H] | 1.32

Row | Variant | protein stability index
25 | TSGKRYVYRFVCDLQNLYGFTPEE [L18Y] | 1.74
26 | TSGKRYVYRFVCDLQNLGGFTPEE [L18G] | 1.92
27 | TSGKRYVYRFVCDLQNLCGFTPEE [L18C] | 1.39
28 | TSGKRYVYRFVCDLQNLRGFTPEE [L18R] | 2.09
29 | TSGKRYVYRFVCDLQNLQGFTPEE [L18Q] | 2.88
30 | TSGKRYVYRFVCDLQNLAGFTPEE [L18A] | 1.99
31 | TSGKRYVYRFVCDLQNLIGFTPEE [L18I] | 1.2
32 | TSGKRYVYRFVCDLQNLSGFTPEE [L18S] | 1.87
33 | TSGKRYVYRFVCDLQNLFGFTPEE [L18F] | 1.84
34 | TSGKRYVYRFVCDLQNLKGFTPEE [L18K] | 1.95
35 | TSGKRYVYRFVCDLQNLPGFTPEE [L18P] | 1.68
36 | TSGKRYVYRFVCDLQNLMGFTPEE [L18M] | 2.07
37 | TSGKRYVYRFVCDLQNELGFTPEE [L17E] | 3.13
38 | TSGKRYVYRFVCDLQNKLGFTPEE [L17K] | 2.43
39 | TSGKRYVYRFVCDLQNDLGFTPEE [L17D] | 1.92
40 | TSGKRYVYRFVCDLQNMLGFTPEE [L17M] | 1.47
41 | TSGKRYVYRFVCDLQNVLGFTPEE [L17V] | 1.91
42 | TSGKRYVYRFVCDLQNGLGFTPEE [L17G] | 2.31
43 | TSGKRYVYRFVCDLQNHLGFTPEE [L17H] | 2.61
44 | TSGKRYVYRFVCDLQNYLGFTPEE [L17Y] | 2.37
45 | TSGKRYVYRFVCDLQNFLGFTPEE [L17F] | 2.73
46 | TSGKRYVYRFVCDLQNRLGFTPEE [L17R] | 2.79
47 | TSGKRYVYRFVCDLQNSLGFTPEE [L17S] | 2.12
48 | TSGKRYVYRFVCDLQNILGFTPEE [L17I] | 2.31

Row | Variant | protein stability index
49 | TSGKRYVYRFVCDLQNQLGFTPEE [L17Q] | 1.71
50 | TSGKRYVYRFVCDLQNNLGFTPEE [L17N] | 2.27
51 | TSGKRYVYRFVCDLQNPLGFTPEE [L17P] | 3.57
52 | TSGKRYVYRFVCDLQNWLGFTPEE [L17W] | 2.21
53 | TSGKRYVYRFVCDLQNTLGFTPEE [L17T] | 2.98
54 | TSGKRYVYRFVCDLQNALGFTPEE [L17A] | 2.08
55 | TSGKRYVYRFVCDLQNCLGFTPEE [L17C] | 2.57
56 | TSGKRYVYRFVCDLCNLLGFTPEE [Q15C] | 2.23
57 | TSGKRYVYRFVCDLTNLLGFTPEE [Q15T] | 1.91
58 | TSGKRYVYRFVCDLVNLLGFTPEE [Q15V] | 2.47
59 | TSGKRYVYRFVCDLSNLLGFTPEE [Q15S] | 2.07
60 | TSGKRYVYRFVCDLENLLGFTPEE [Q15E] | 1.85
61 | TSGKRYVYRFVCDLRNLLGFTPEE [Q15R] | 3
62 | TSGKRYVYRFVCDLFNLLGFTPEE [Q15F] | 2.09
63 | TSGKRYVYRFVCDLGNLLGFTPEE [Q15G] | 3.45
64 | TSGKRYVYRFVCDLNNLLGFTPEE [Q15N] | 2.13
65 | TSGKRYVYRFVCDLLNLLGFTPEE [Q15L] | 2.44
66 | TSGKRYVYRFVCDLINLLGFTPEE [Q15I] | 2.43
67 | TSGKRYVYRFVCDLPNLLGFTPEE [Q15P] | 2.7
68 | TSGKRYVYRFVCDLWNLLGFTPEE [Q15W] | 1.88
69 | TSGKRYVYRFVCDLDNLLGFTPEE [Q15D] | 1.61
70 | TSGKRYVYRFVCDLANLLGFTPEE [Q15A] | 2.23
71 | TSGKRYVYRFVCDLYNLLGFTPEE [Q15Y] | 2.23
72 | TSGKRYVYRFVCDLKNLLGFTPEE [Q15K] | 2.03

Row | Variant | protein stability index
73 | TSGKRYVYRFVCDLHNLLGFTPEE [Q15H] | 1.96
74 | TSGKRYVYRFVCDLQNLLGFTPLE [E23L] | 2.42
75 | TSGKRYVYRFVCDLQNLLGFTPME [E23M] | 2.35
76 | TSGKRYVYRFVCDLQNLLGFTPCE [E23C] | 2.97
77 | TSGKRYVYRFVCDLQNLLGFTPHE [E23H] | 3.12
78 | TSGKRYVYRFVCDLQNLLGFTPIE [E23I] | 2.43
79 | TSGKRYVYRFVCDLQNLLGFTPAE [E23A] | 2.68
80 | TSGKRYVYRFVCDLQNLLGFTPDE [E23D] | 2.04
81 | TSGKRYVYRFVCDLQNLLGFTPFE [E23F] | 2.66
82 | TSGKRYVYRFVCDLQNLLGFTPGE [E23G] | 2.15
83 | TSGKRYVYRFVCPLQNLLGFTPEE [D13P] | 3.25
84 | TSGKRYVYRFVCQLQNLLGFTPEE [D13Q] | 2.46
85 | TSGKRYVYRFVCWLQNLLGFTPEE [D13W] | 2.98
86 | TSGKRYVYRFVCYLQNLLGFTPEE [D13Y] | 2.37
87 | TSGKRYVYRFVCNLQNLLGFTPEE [D13N] | 1.77
88 | TSGKRYVYRFVCSLQNLLGFTPEE [D13S] | 1.57
89 | TSGKRYVYRFVCFLQNLLGFTPEE [D13F] | 2.96
90 | TSGKRYVYRFVCVLQNLLGFTPEE [D13V] | 2.33
91 | TSGKRYVYRFVCRLQNLLGFTPEE [D13R] | 2.11
92 | TSGKRYVYRFVCTLQNLLGFTPEE [D13T] | 2.99
93 | TSGKRYVYRFVCGLQNLLGFTPEE [D13G] | 2.41
94 | TSGKRYVYRFVCLLQNLLGFTPEE [D13L] | 2.22
